T1: BIN1 SH3 domain (Homo sapiens, UniProt O00499)
T1 construct: 6x His with TEV cleavage site (N, cleaved yes); made in house; host or cells: E. coli BL21 (DE3), pET28a(+)
T1 sequence (O00499 513-593): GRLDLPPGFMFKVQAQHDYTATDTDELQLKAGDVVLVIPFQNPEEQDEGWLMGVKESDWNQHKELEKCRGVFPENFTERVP

B1: human BIN1 SH3 domain (untagged) (other)
chain: T1 sequence (O00499 513-593)
notes: also called native BIN1 SH3 domain; the peptide

How the values were obtained:
BIN1 SH3 domain = target: T1, BIN1 SH3 domain; assay: Surface plasmon resonance (SPR) binding to immobilised BIN1 SH3 domain; settings: triplicate, ligand BIN1 SH3 domain 50 μg/mL, analyte serial dilution 75-0.6 μM, dissociation time 120 seconds, 25° C., running buffer 1×PBS-P+, read-out: dissociation constant (KD)
Method: (§1) Next, the inventors determined the dissociation constant (KD) for the peptide and full-length 0N4R WT Tau by surface plasmon resonance (SPR). The experiment was run in triplicate with BIN1 SH3 domain 50 μg/mL as the ligand, and FL 0N4R WT Tau in serial dilution from 75-0.6 μM as the analyte. Flow rate—30 μL/minute, contact time—30 seconds, dissociation time—120 seconds, temperature—25° C., running buffer—1×PBS-P+. A dissociation constant of 1.136 μM was determined.
Then, the dissociation constants for nine compounds identified through the molecular docking analysis were assessed. […] Therefore, compound #5 is a candidate compound for further testing in Alzheimer's disease. Ligand-BIN1 SH3 domain 50 μg/mL. Analyte—compounds 1-2 (serial dilutions from 500-3.12 μM), #4 & 6-9 (250-3.12 μM) and #5 (dilutions from 100-3.12 μM). Flow rate—30 μL/minute, contact time—30 seconds, dissociation time—300 seconds, temperature—25° C., running buffer—1.05×PBS-P+ with 5% DMSO. Solvent correction for 5% DMSO was calculated and mathematically subtracted from each compound analysis.

full-length 0N4R WT Tau [1] = target: T2, full-length 0N4R WT Tau (UniProt P10636-6 2-383, limits assumed); assay: SPR, steady-state affinity fit (replicate 1 of 3); BIN1 SH3 domain as immobilised ligand, FL 0N4R WT Tau as analyte 0.6-75 µM, 25 °C, PBS-P+
T2 construct: mature; also called FL 0N4R WT Tau
T2 sequence (P10636 other isoform, or with tags, fused parts or gaps limits assumed): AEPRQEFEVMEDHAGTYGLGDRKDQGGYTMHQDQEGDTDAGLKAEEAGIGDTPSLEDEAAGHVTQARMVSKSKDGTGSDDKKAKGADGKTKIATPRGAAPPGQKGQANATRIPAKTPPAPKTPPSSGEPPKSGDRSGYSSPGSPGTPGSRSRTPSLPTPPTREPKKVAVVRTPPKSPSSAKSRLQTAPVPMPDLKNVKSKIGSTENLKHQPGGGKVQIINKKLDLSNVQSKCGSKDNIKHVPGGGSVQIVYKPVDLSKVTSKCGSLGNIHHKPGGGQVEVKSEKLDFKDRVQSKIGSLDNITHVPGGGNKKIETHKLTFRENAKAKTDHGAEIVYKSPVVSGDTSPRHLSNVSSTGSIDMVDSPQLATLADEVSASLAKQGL
Method: as §1, with “buffer—1×PBS-P+.” for “buffer—1×PBS-P+. A dissociation constant of 1.136 μM was determined.”

full-length 0N4R WT Tau [2] = target: T2, full-length 0N4R WT Tau; assay: SPR, steady-state affinity fit (replicate 3 of 3); BIN1 SH3 domain as immobilised ligand, FL 0N4R WT Tau as analyte 0.6-75 µM, 25 °C, PBS-P+
Method: as §1, with “buffer—1×PBS-P+.” for “buffer—1×PBS-P+. A dissociation constant of 1.136 μM was determined.”

full-length 0N4R WT Tau [3] = target: T2, full-length 0N4R WT Tau; assay: SPR, run in triplicate; BIN1 SH3 domain (50 µg/mL) as immobilised ligand, FL 0N4R WT Tau in serial dilution from 75-0.6 µM as analyte; 25° C., 1×PBS-P+
Method: as §1, with “buffer—1×PBS-P+.” for “buffer—1×PBS-P+. A dissociation constant of 1.136 μM was determined.”

full-length 0N4R WT Tau [4] = target: T2, full-length 0N4R WT Tau; assay: SPR, steady-state affinity fit (replicate 2 of 3); BIN1 SH3 domain as immobilised ligand, FL 0N4R WT Tau as analyte 0.6-75 µM, 25 °C, PBS-P+
Method: as §1, with “buffer—1×PBS-P+.” for “buffer—1×PBS-P+. A dissociation constant of 1.136 μM was determined.”

Molecule	Kd (BIN1 SH3 domain) [µM]	Kd (full-length 0N4R WT Tau [1]) [µM]	Kd (full-length 0N4R WT Tau [2]) [µM]	Kd (full-length 0N4R WT Tau [3]) [µM]	Kd (full-length 0N4R WT Tau [4]) [µM]
FL 0N4R WT Tau: full-length 0N4R wild-type Tau protein used as analyte in SPR	1.14	–	–	–	–
B1	–	1.03	1.08	1.14	1.3
